Data published in publication PMC5992170, “Modular ssDNA binding and inhibition of telomerase activity by designer PPR proteins”.

Assays:
[1] = test system: cPPR-NRE (synthetic construct); experiment: EMSA; conditions: dU as printed (AUUGUAUAUA); EMSA: 10 mM HEPES pH 8.0, 1 mM EDTA, 50 mM KCl, 2 mM DTT, 0.1 mg/ml BSA, 0.02% Tween-20, room temperature 30 min, 0.83 uM probe, 0-10 uM protein (Kd values …)
[2] = molecular target: T1, cPPR-Telo1 (synthetic construct, UniProt PDB:5ORQ_1 1-364); experiment: EMSA; EMSA: 10 mM HEPES pH 8.0, 1 mM EDTA, 50 mM KCl, 2 mM DTT, 0.1 mg/ml BSA, 0.02% Tween-20, room temperature 30 min, 0.83 uM probe, 0-10 uM protein (Kd values only in Supplementary Fig. 2 graphic); conditions: protein: recombinant, tags: GST-His (pETM30), label: 5'-fluorescein via hexaethyleneglycol spacer
T1 chain: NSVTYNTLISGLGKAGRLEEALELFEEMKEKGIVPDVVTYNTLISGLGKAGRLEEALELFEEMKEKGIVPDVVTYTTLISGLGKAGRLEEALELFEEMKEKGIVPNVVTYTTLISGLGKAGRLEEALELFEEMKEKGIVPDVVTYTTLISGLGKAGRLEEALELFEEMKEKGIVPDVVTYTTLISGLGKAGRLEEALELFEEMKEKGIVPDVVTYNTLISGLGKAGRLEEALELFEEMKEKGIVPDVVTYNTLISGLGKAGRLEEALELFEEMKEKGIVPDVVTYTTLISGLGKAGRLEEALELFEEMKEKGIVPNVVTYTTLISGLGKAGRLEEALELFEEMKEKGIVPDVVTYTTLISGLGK

[3] = molecular target: T2, cPPR-Telo1 (tag removed) (synthetic construct, UniProt PDB:5ORQ_1 1-364); experiment: X-ray crystallography (1.95 A); pH 4.6, 20 mM CaCl2; EMSA: 10 mM HEPES pH 8.0, 1 mM EDTA, 50 mM KCl, 2 mM DTT, 0.1 mg/ml BSA, 0.02% Tween-20, room temperature 30 min, 0.83 uM probe, 0-10 uM protein (Kd values only in Supplementary Fig. 2 graphic); conditions: protein: recombinant; tags: none (GST-His removed by TEV); single strand
T2 chain: T1 chain

AUUGUAUAUA [NRE ssDNA]
binding signal (fold lower affinity than NRE RNA) [1]: 3

GGTTAGGGTTAG (ssDNA) [Telo-ssDNA]
binding result ([2]; single strand): binds

GGTTAGGGTTAGGGTTAGGG (structured_DNA) [Primer GG-a (Telo-ssDNA-GG)]
binding result ([2]; potential intramolecular G4): binds

TTAGGGTTAGGGTTAGGG (ssDNA) [Primer a]
binding result ([2]; single strand, cannot form G4): binds

TTAGGGTTAG (ssDNA) [cPPR-Telo1 target ssDNA]
binding result [3]: binds
